Test results from patent US20250346682A1 (TENEOBIO, published 2025).

B1: anti-CD20 heavy chain-only antibody (UniAb) Clone ID 367936 (antibody, V domains shown)
VH: QVQLQESGPGLVKPSETLSLTCTVSGGSVSSGNYYWNWIRQPPGKGLEWIGYIYSSGSTKYNPSLKSRVTILVDTSKNQFSLKLSSVTAADTAVYYCARSRLNGDGLFDDRGQGTLVTVSS
notes: Heavy chain-only antibody (UniAb) from UniRat, called human IgG, with no light chain; also called VH936
B2: anti-CD20 heavy chain-only antibody (UniAb) Clone ID 367912 (antibody, V domains shown)
VH: EVQLVESGGGVVRPGGSLRLSCAASGFTFDDYGMSWVRQAPGKGLEWVSSINWNGGSKGYADSVKGRFTISRDNAKNSLYLQMNSLRVEDTALYQCARERGYRIGHDSFDIWGQGTLVTVSS
notes: Heavy chain-only antibody (UniAb) from UniRat, called human IgG, with no light chain; also called VH912

Target: T1, human CD20 (B-lymphocyte antigen CD20) (human, UniProt P11836 1-297)
T1 construct: whole, on cells; also called MS4A1
T1 sequence (looked up): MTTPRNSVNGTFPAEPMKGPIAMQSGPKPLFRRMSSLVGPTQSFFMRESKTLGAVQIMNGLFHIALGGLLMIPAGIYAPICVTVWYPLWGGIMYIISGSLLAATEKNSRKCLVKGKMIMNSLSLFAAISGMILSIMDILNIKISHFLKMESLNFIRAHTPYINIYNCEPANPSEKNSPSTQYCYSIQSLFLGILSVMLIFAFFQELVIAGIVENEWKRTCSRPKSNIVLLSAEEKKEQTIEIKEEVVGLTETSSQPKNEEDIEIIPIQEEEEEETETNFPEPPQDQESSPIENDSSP
Experiment: ELISA on CD20 protein and cell-binding assays

Binder | binding result
B1 | binds
B2 | binds
